Molecular target: biotinylated MPER peptide (MPERbiot) (HIV (strain not stated))
Assay: BLI

- koff: 0.00126 s⁻¹
Substance: trispecific anti-HIV antibody (SAR441236)
